Paper doi:10.1101/2024.02.20.581179
Blank lines part the entries; values can stand above or below the substance they belong to.

Key:
Assay in all cases: SEC
[1] = molecular target: GST-tagged A. carterae eIF4E-2a (not stated | Amphidinium carterae)
[2] = molecular target: GST-tagged A. carterae eIF4E-1d1 (not stated | Amphidinium carterae)
[3] = molecular target: GST-tagged mouse eIF4E-1 (not stated | mouse)
[4] = molecular target: GST-tagged A. carterae eIF4E-1a (not stated | Amphidinium carterae)

- stoichiometry N [1]: 2
Substance: GST-tagged A. carterae eIF4E-2a

- stoichiometry N [2]: 2
Substance: GST-tagged A. carterae eIF4E-1d1

- stoichiometry N [3]: 2
Substance: GST-tagged mouse eIF4E-1

- stoichiometry N [4]: 2
Substance: GST-tagged A. carterae eIF4E-1a
